Measurements published in the supplement of paper PMC7877785.
± gives the uncertainty stated by the source.

Test: self-splicing fitness, log relative to wild type (ln ratio); higher = more splicing; Tetrahymena group I intron in knt gene, E. coli kanamycin selection, DiMSum; sequences stand for … in CUCUCU…GGAGGGAAAAGUUAUCAGGCAUGCACCUGGUAGCUAGUCUUUAAACCAAUAGAUUGCAUCGGUUUAAAAGGCAAGACCGUCAAAUUGCGGGAAAGGGGUCAACAGCCGUUCAGUACCAAGUCUCAGGGGAAACUUUGAGAUGGCCUUGCAAAGGGUAUGGUAAUAAGCUGACGGACAUGGUCCUAACCACGCAGCCAAGUCCUAAGUCAACAGAUCUUCUGUUGAUAUGGAUGCAGUUCACAGACUAAAUGUCGGUCGGGGAAGAUGUAUUCUUCUCAUAAGAUAUAGUCGGACCUCUCCUUAAUGGGAGCUAGCGGAUGAAGUGAUGCAACACUGGAGCCGCUGGGAACUAAUUUGUAUGCGAAAGUAUAUUGAUUAGUUUUGGAGUACUCGUGGUCG
Outline: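 Six replicate transformations of E. coli BL21(DE3) with a pET-22b(+) library were grown overnight at 37°C or 30°C. The library randomised all eight P1ex-region intron nucleotides, the intron lying in the knt kanamycin-resistance gene, and plates were LB agar with or without 25 μg/mL kanamycin plus 100 μg/mL carbenicillin, 50 μM IPTG and 0.2% rhamnose. Pooled colonies were amplicon-sequenced on an Illumina HiSeq 2500, and fitness is the DiMSum error-weighted combination of wild-type-normalised replicate fold changes, kanamycin versus none.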

Sequence	self-splicing fitness (ln) (30 °C)	self-splicing fitness (ln) (37 °C)
GGGUAGCAAUAUUACGCAAG	-1.59 ± 0.11	-0.847 ± 0.16
GGGUAGCAAUAUUACGCACA	-0.833 ± 0.2	0.402 ± 0.22
GGGUAGCAAUAUUACGCGAC	-2.34 ± 0.2	-1.62 ± 0.23
GGGUAGCAAUAUUACGCGAU	-3.42 ± 0.26	-1.93 ± 0.23
GGGUAGCAAUAUUACGCUAC	-1.81 ± 0.34	
GGGUAGCAAUAUUACGCUGG	-2.61 ± 0.35	-2.45 ± 0.42
GGGUAGCAAUAUUACGCUGU	-3.54 ± 0.38	-2.32 ± 0.29
GGGUAGCAAUAUUACGGAGG		-0.988 ± 0.29
GGGUAGCAAUAUUACGGGUC	-2.32 ± 0.17	-1.1 ± 0.18
GGGUAGCAAUAUUACGGUCC	-1.34 ± 0.25	
GGGUAGCAAUAUUACGUCGA	-0.508 ± 0.14	-0.243 ± 0.15
GGGUAGCAAUAUUACGUCGG	-3.8 ± 0.2	-1.68 ± 0.17
GGGUAGCAAUAUUACGUGAG	-0.474 ± 0.074	0.074 ± 0.11
GGGUAGCAAUAUUACGUUUU	-1.31 ± 0.063	-0.826 ± 0.1
GGUAAGCAAUAUUACGAAAU	-1.94 ± 0.34	-0.431 ± 0.32
GGUAAGCAAUAUUACGACUC	0.295 ± 0.12	-0.605 ± 0.18
GGUAAGCAAUAUUACGAGAG	-3.7 ± 0.4	-3.25 ± 0.25
GGUAAGCAAUAUUACGCAAU	-1.38 ± 0.11	-1.44 ± 0.14
GGUAAGCAAUAUUACGCCCA	-1.68 ± 0.23	-1.01 ± 0.27
GGUAAGCAAUAUUACGCCUG		-1.53 ± 0.33
GGUAAGCAAUAUUACGCGAG	-2.95 ± 0.15	-0.704 ± 0.09
GGUAAGCAAUAUUACGCGCG	-0.623 ± 0.1	0.012 ± 0.14
GGUAAGCAAUAUUACGCGUG	-2.42 ± 0.18	-0.242 ± 0.15
GGUAAGCAAUAUUACGCUGA	-2.82 ± 0.28	-0.411 ± 0.22
GGUAAGCAAUAUUACGCUUG	-3.34 ± 0.38	-1.7 ± 0.34

Sequence	self-splicing fitness (ln) (30 °C)	self-splicing fitness (ln) (37 °C)
GGUAAGCAAUAUUACGGCUG	-0.805 ± 0.14	0.356 ± 0.15
GGUAAGCAAUAUUACGGGGA		-2.42 ± 0.33
GGUAAGCAAUAUUACGGGUU	-1.82 ± 0.076	-1.69 ± 0.11
GGUAAGCAAUAUUACGGUGC	-1.14 ± 0.15	-0.983 ± 0.26
GGUAAGCAAUAUUACGGUGU	-1.81 ± 0.1	-0.484 ± 0.11
GGUAAGCAAUAUUACGGUUU	-0.707 ± 0.056	-0.0713 ± 0.083
GGUAAGCAAUAUUACGUAGU	-1.48 ± 0.11	-1.46 ± 0.17
GGUAAGCAAUAUUACGUGGU	-1.33 ± 0.29	-2.48 ± 0.21
GGUAAGCAAUAUUACGUGUC	-2.08 ± 0.23	-0.504 ± 0.3
GGUCAGCAAUAUUACGACAG	-0.391 ± 0.11	0.151 ± 0.13
GGUCAGCAAUAUUACGACCU	-3.06 ± 0.3	-2.07 ± 0.32
GGUCAGCAAUAUUACGACUG	-0.394 ± 0.15	-0.586 ± 0.2
GGUCAGCAAUAUUACGAGUC	-1.51 ± 0.09	-0.893 ± 0.1
GGUCAGCAAUAUUACGAGUU	-1.38 ± 0.068	-0.17 ± 0.071
GGUCAGCAAUAUUACGAUAA	0.11 ± 0.092	0.447 ± 0.15
GGUCAGCAAUAUUACGAUCA	-0.0175 ± 0.14	0.178 ± 0.13
GGUCAGCAAUAUUACGAUGG	-1.34 ± 0.076	-0.299 ± 0.1
GGUCAGCAAUAUUACGAUUA	-0.0947 ± 0.092	-0.0575 ± 0.092
GGUCAGCAAUAUUACGCAGC	-1.76 ± 0.14	-0.838 ± 0.13
GGUCAGCAAUAUUACGCCUU	-0.559 ± 0.051	0.122 ± 0.069
GGUCAGCAAUAUUACGCUUU	0.129 ± 0.071	-0.0673 ± 0.092
GGUCAGCAAUAUUACGGGCG	-0.483 ± 0.088	0.32 ± 0.12
GGUCAGCAAUAUUACGGUUA	-0.399 ± 0.081	0.53 ± 0.076
GGUCAGCAAUAUUACGUCCA	-1.63 ± 0.11	-1.02 ± 0.1
GGUCAGCAAUAUUACGUGCG	0.397 ± 0.12	-0.078 ± 0.13

Sequence	self-splicing fitness (ln) (30 °C)	self-splicing fitness (ln) (37 °C)
GGUCAGCAAUAUUACGUGGA	-1.82 ± 0.14	-1.58 ± 0.14
GGUCAGCAAUAUUACGUUAC	-1.25 ± 0.061	-0.483 ± 0.08
GGUCAGCAAUAUUACGUUUG	-2.61 ± 0.11	-2.38 ± 0.15
GGUGAGCAAUAUUACGAAGG		-2.87 ± 0.4
GGUGAGCAAUAUUACGAAUU	-1.69 ± 0.36	-0.274 ± 0.38
GGUGAGCAAUAUUACGACAG	-3.05 ± 0.41	
GGUGAGCAAUAUUACGAGUA	-1.41 ± 0.21	-1.69 ± 0.29
GGUGAGCAAUAUUACGAUGG		-1.2 ± 0.39
GGUGAGCAAUAUUACGCAAU	-3.03 ± 0.32	-1.94 ± 0.43
GGUGAGCAAUAUUACGCCGU	-2.63 ± 0.42	
GGUGAGCAAUAUUACGCGGC	-2.2 ± 0.27	-1.9 ± 0.28
GGUGAGCAAUAUUACGCGUU	-2.61 ± 0.15	-0.173 ± 0.16
GGUGAGCAAUAUUACGGAAG		-2.66 ± 0.41
GGUGAGCAAUAUUACGGAGA	-1.36 ± 0.37	
GGUGAGCAAUAUUACGGCAA	-1.26 ± 0.34	-1.28 ± 0.42
GGUGAGCAAUAUUACGGCCA	-1 ± 0.26	-0.395 ± 0.17
GGUGAGCAAUAUUACGGUUA	-2.58 ± 0.22	-1.85 ± 0.17
GGUGAGCAAUAUUACGGUUC	-1.21 ± 0.23	-0.574 ± 0.4
GGUGAGCAAUAUUACGUACC	-3.31 ± 0.44	-1.75 ± 0.37
GGUGAGCAAUAUUACGUAUG	-3.26 ± 0.47	-0.0178 ± 0.18
GGUGAGCAAUAUUACGUCCC	-2.23 ± 0.39	
GGUGAGCAAUAUUACGUCGA	-3.18 ± 0.31	-2.42 ± 0.28
GGUGAGCAAUAUUACGUGAC	-3.14 ± 0.22	-0.938 ± 0.22
GGUGAGCAAUAUUACGUUGC	-3.27 ± 0.35	
GGUUAGCAAUAUUACGAACG	-0.128 ± 0.21	-0.629 ± 0.44

Sequence	self-splicing fitness (ln) (30 °C)	self-splicing fitness (ln) (37 °C)
GGUUAGCAAUAUUACGAACU	-1.88 ± 0.27	-0.492 ± 0.34
GGUUAGCAAUAUUACGAGCG	-0.684 ± 0.12	-0.0379 ± 0.12
GGUUAGCAAUAUUACGAGGA	-3.3 ± 0.29	-1.96 ± 0.24
GGUUAGCAAUAUUACGAUCU	-1.04 ± 0.24	-0.76 ± 0.24
GGUUAGCAAUAUUACGAUGG	-1.88 ± 0.23	-1.16 ± 0.24
GGUUAGCAAUAUUACGAUUA	-0.191 ± 0.13	0.0365 ± 0.12
GGUUAGCAAUAUUACGCACG	-0.656 ± 0.11	-0.507 ± 0.13
GGUUAGCAAUAUUACGCAGU	-1.5 ± 0.27	-1.67 ± 0.3
GGUUAGCAAUAUUACGCCAU	-1.39 ± 0.38	
GGUUAGCAAUAUUACGCCCU	-0.754 ± 0.45	-0.983 ± 0.48
GGUUAGCAAUAUUACGCGAU	-2.48 ± 0.23	-3.48 ± 0.46
GGUUAGCAAUAUUACGCGUC	-1.53 ± 0.2	-1.04 ± 0.18
GGUUAGCAAUAUUACGCGUG	-0.908 ± 0.051	-0.592 ± 0.063
GGUUAGCAAUAUUACGCUGG	-3.44 ± 0.47	-1.59 ± 0.31
GGUUAGCAAUAUUACGGAAA	-1.53 ± 0.25	-1.76 ± 0.22
GGUUAGCAAUAUUACGGAAG		-2.49 ± 0.36
GGUUAGCAAUAUUACGGAGU	-1.27 ± 0.18	-0.724 ± 0.2
GGUUAGCAAUAUUACGGAUG	-0.648 ± 0.1	-0.92 ± 0.14
GGUUAGCAAUAUUACGGAUU	0.0654 ± 0.078	-0.0766 ± 0.092
GGUUAGCAAUAUUACGGCGA	-0.237 ± 0.09	0.106 ± 0.086
GGUUAGCAAUAUUACGGCGC	0.645 ± 0.28	-0.634 ± 0.25
GGUUAGCAAUAUUACGGGCG	0.777 ± 0.094	0.208 ± 0.1
GGUUAGCAAUAUUACGUAAA	-1.22 ± 0.13	-0.462 ± 0.2
GGUUAGCAAUAUUACGUCGG	-2.3 ± 0.36	-1.7 ± 0.35
GGUUAGCAAUAUUACGUCGU	-0.855 ± 0.073	0.451 ± 0.11
